Assay [1] has as its target T1, human RSPO3 (human, UniProt Q9BXY4 22-272, limits assumed).
T1 construct: Recombinant protein; also called R-spondin 3
T1 sequence (looked up): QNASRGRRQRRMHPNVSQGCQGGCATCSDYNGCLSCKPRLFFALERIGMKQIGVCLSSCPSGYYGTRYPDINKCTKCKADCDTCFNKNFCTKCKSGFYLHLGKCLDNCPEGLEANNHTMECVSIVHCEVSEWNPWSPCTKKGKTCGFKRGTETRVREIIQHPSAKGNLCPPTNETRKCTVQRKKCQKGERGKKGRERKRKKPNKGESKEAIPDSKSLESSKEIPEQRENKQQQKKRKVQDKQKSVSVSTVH
Kind of assay: Biacore (SPR).

The target of assay [2] is T2, human RSPO1 (human, UniProt Q2MKA7 21-263, limits assumed).
T2 construct: Recombinant protein; also called R-spondin 1; recombinant R-spondin
Nature of the assay: Biacore (SPR). (Surface plasmon resonance follows binding to a sensor surface in real time, without labels.)

Assay [3] has as its target T3, human RSPO2 (human, UniProt Q6UXX9 22-243, limits assumed).
T3 construct: Recombinant protein; also called R-spondin 2; recombinant human RSPO2
Kind of assay: Biacore (SPR).

The target of assay [4] is T4, human RSPO4 (human, UniProt Q2I0M5 20-234, limits assumed).
T4 construct: Recombinant protein; also called R-spondin 4
Kind of assay: Biacore (SPR).

The target of assay [5] is T4, human RSPO4. Nature of the assay: Biacore (SPR); human RSPO4.
Assay [6] concerns the target T1, human RSPO3. Nature of the assay: Biacore (SPR), against ZNRF3-Fc ECD fusion tested in parallel.
The target of assay [7] is T3, human RSPO2. Described as above.
In assay [8] the target is T2, human RSPO1. Kind of assay: Biacore (SPR); human RSPO1.
The target in assay [9] is T1, human RSPO3. Nature of the assay: Biacore (SPR); human RSPO3.
For assay [10], the target named is T3, human RSPO2. Nature of the assay: Biacore (SPR); human RSPO2.

T3 sequence (Q6UXX9 22-243 limits assumed): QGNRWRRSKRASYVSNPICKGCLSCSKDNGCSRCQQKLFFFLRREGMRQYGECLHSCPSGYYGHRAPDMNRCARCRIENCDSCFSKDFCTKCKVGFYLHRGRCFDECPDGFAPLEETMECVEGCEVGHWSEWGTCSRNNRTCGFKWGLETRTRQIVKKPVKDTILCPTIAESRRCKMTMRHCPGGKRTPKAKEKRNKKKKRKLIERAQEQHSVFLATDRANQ
T4 sequence (Q2I0M5 20-234 limits assumed): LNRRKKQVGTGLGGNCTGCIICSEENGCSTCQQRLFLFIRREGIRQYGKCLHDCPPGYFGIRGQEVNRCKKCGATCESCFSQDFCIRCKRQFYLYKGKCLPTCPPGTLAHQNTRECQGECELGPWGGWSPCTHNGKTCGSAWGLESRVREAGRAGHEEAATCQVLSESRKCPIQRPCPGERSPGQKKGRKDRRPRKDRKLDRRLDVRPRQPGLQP
T2 sequence (Q2MKA7 21-263 limits assumed): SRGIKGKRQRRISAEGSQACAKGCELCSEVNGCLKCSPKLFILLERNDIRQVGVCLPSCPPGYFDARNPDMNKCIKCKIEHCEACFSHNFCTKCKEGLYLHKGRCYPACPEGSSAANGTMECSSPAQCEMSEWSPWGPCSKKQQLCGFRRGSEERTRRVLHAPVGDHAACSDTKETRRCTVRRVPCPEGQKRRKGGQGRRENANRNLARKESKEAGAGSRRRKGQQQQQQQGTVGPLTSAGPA

For orientation: Kd means the concentration at which binding is half-saturated. Consider ZNRF3-Fc ECD fusion (Fc fusion), for which the Kd with human RSPO3 [1] is 6.58 nM; with human RSPO1 [2] it was 381 nM; in the assay with human RSPO2 [3], 12.8 nM; in the assay with human RSPO4 [4], above 1000 nM.

B1: soluble RNF43-Fc ECD fusion protein (Fc fusion)
chain: GFGHTGRVLAAAVESERSAEQKAVIRVIPLKMDPTGKLNLTLEGVFAGVAEVTPAEGKLMQSHPLYLCNASDDDNLEPGFISIVKLESPRRAPRPCLSLASKARMAGERGANAVLFDITEDRSAAEQLQQPLGLTKPVVLIWGSDAAKLMEFVYKNRKAYVWIELKEPPRRLEPRGPTIKPCPPCKCPAPNLLGGPSVFIFPPKIKDVLMISLSPIVTCVVVDVSEDDPDVQISWFVNNVEVHTAQTQTHREDYNSTLRVVSALPIQHQDWMSGKEFKCKVNNKDLPAPIERTISKPKGSVRAPQVYVLPPPEEEMTKKQVTLTCMVTDFMPEDIYVEWTNNGKTELNYKNTEPVLDSDGSYFMYSKLRVEKKNWVERNSYSCSVVHEGLHNHHTTKSFSRTPGK
notes: No linker between ECD and Fc is stated; also called RNF43 ECD-Fc fusion protein; RNF43 ECD
Take B1: the Kd was 142 nM with human RSPO4 [5], 53 nM in the assay with human RSPO1 [8], 0.00145 nM in the assay with human RSPO3 [9] and 0.00182 nM with human RSPO2 [10]. Further, the “fold stronger affinity than the ZNRF3-Fc ECD fusion” value in the assay with human RSPO3 [6] was around 4500 fold; with human RSPO2 [7], around 7000 fold.
